Assays:
[1] = biological target: T1, human IL-21R extracellular domain His-Flag fusion protein (human, UniProt Q9HBE5 20-232); experiment: SPR, Ab captured on anti-human IgG
T1 construct: Biotinylated in the HTRF screen; also called hIL-21R-H/F; human IL-21R-H/F
Procedure: (§1) The kinetics of binding of anti-IL-21R antibodies to human and murine IL-21R-H/F was tested on a BIACORE™ surface plasmon resonance instrument. Anti-human IgG antibodies (Invitrogen Corporation) were immobilized onto a research-grade carboxy-methyl-dextran chip (CM5) using standard amine coupling. The surface was activated with EDC/NHS for 7 min at a flow of 20 μl/min. The first flow cell was used as a reference surface to correct for bulk refractive index, matrix effects, and nonspecific binding. The anti-human-Fc antibody was diluted to 20 μg/ml in 10 mM sodium acetate buffer (pH 5.0), and 2950-3405 resonance units (RU) were captured on each of the four flow cells. Remaining activated groups were blocked with 1.0 M ethanolamine-HCl (pH 8.5).
(§2) Anti-IL-21R antibodies were diluted to 0.1-0.2 μg/ml in HBS/EP buffer supplemented with 0.2% bovine serum albumin and loaded onto the BIACORE™ chip. Following a brief washing period, solutions of 0-100 nM human IL-21R-H/F or 10-500 nM murine IL-21R-H/F were injected over the chip at a flow rate of 50 μl/min. The association phase was run for 3 min for human and murine IL-21R kinetics, and the dissociation phase was monitored for 15 min for hIL-21R and for 5 min for mIL-21R, followed by two 10 μl injections and one 30 μl injection of glycine (pH 1.5), to regenerate a fully active capturing surface. All binding experiments were done at 25° C. in HBS/EP buffer, and the sample rack was kept at 15° C. Blank and buffer effects were subtracted for each sensorgram using double referencing.

[2] = biological target: T2, murine IL-21R extracellular domain His-Flag fusion protein (murine, UniProt Q9JHX3 20-237); experiment: SPR, Ab captured on anti-human IgG
T2 construct: Biotinylated in the ELISAs; also called mIL-21R-H/F; murine IL-21R-H/F
Procedure: as §1, §2

[3] = biological target: T1, human IL-21R extracellular domain …; experiment: SPR, Ab captured on anti-human IgG, replicate experiment
Procedure: as §1, §2

[4] = biological target: T3, human IL-21R expressed on cells (human, UniProt Q9HBE5 20-538); experiment: cell-based ELISA on CHO cells transiently expressing human IL-21R; HRP anti-human IgG, A450
T3 construct: also called human IL-21R-BaF3; human IL-21R-TF1

[5] = biological target: T4, cynomolgus monkey IL-21R expressed on cells (cynomolgus monkey, UniProt G7Q0S8 41-559); experiment: cell-based ELISA on CHO cells transiently expressing cynomolgus monkey IL-21R; HRP anti-human IgG, A450
T4 construct: whole, on cells

[6] = biological target: T5, human complement component C1q (human, UniProt P02745 23-245; P02746 28-253; P02747 29-245); experiment: C1q ELISA: antibody coated on the plate, human serum 1:50, chicken anti-human C1q and HRP anti-chicken IgY
T5 construct: Native C1q in diluted human serum
Procedure: In order to determine whether cell-surface binding by anti-IL-21R antibodies is likely to lead to complement-dependent cytotoxicity (CDC), the antibodies were tested for their ability to bind to the complement component C1q in an ELISA. […] Diluted antibodies (100 μl) were coated onto a COSTAR® high-binding ELISA plate (Corning Life Sciences, Lowell, Mass.) overnight at 4° C. Plates were washed 3× with PBS/Tween-20 and blocked with 200 μl of blocking buffer (0.1 M NaPO₄, 0.1 M NaCl, 0.1% gelatin, 0.01% Tween) for 1 hr at RT. Human serum previously determined to contain C1q (Quidel, San Diego, Calif.) was diluted 1:50 in PBS. After 1 hr of blocking, plates were washed and 100 μl of diluted serum was added to each well and incubated for 2 hr at RT on a shaker. Following three washes, 100 μl A of 0.1 μg/ml chicken polyclonal anti-human C1q antibody (AbCam, Cambridge, Mass.) was added to each well and incubated for 1 hr at RT. Plates were again washed and incubated with 100 μA of a rabbit polyclonal antibody to chicken Ig-Y—HRP diluted 1:4000 (AbCam) for 1 hr at RT. Plates were washed and developed with TMB for 5 min, followed by 50 μA of 1 M H₂SO₄ to stop the reaction, and then read at 450 nm.

[7] = biological target: T3, human IL-21R expressed on cells; experiment: cell-based or functional assay
[8] = biological target: murine IL-21R expressed on cells (murine, UniProt Q9JHX3 20-529); experiment: cell-based or functional assay
[9] = biological target: T3, human IL-21R expressed on cells; experiment: cell-based or functional assay; remark: listed apart in the source
[10] = biological target: T6, rat IL-21R expressed on cells (rat); experiment: cell-based ELISA on CHO cells transiently expressing rat IL-21R; HRP anti-human IgG, A450
T6 construct: whole, on cells
Procedure: FIG. 6(a-l) depicts the binding of 21 anti-IL-21R IgGs to CHO cells transiently expressing human IL-21R (FIGS. 6a-c), rat IL-21R (FIGS. 6d-f), cynomolgus monkey IL-21R (FIGS. 6g-i), and human gamma common chain (FIGS. 6j-1). CHO cells were transiently transfected with IL-21R or the control gamma common chain, and binding was detected with HRP-conjugated anti-human IgG in a cell-based ELISA.
A subset of binding proteins was tested for binding to rat, cynomolgus monkey, human IL-21R, or human IL-2R-γ common subunit expressed transiently on the surfaces of CHO-PA-Dukx cells. Cells were transfected 48 hr prior to the assay. On the day of the assay, cells were washed gently 5× in PBS containing 0.9 mM CaCl₂ and 0.45 mM MgCl₂ (PBS/CaMg) on an automated plate washer (Titertek, Huntsville, Ala.), and blocked for 1 hr at RT in PBS/CaMg/5% nonfat dry milk. Conditioned media from transiently expressed anti-IL-21R IgGs were serially diluted in blocking buffer and added to the cells in the blocked plates for 1 hr at RT. Cells were washed 5× with PBS/CaMg and then incubated with horseradish peroxidase-conjugated anti-human IgG for 1 hr at RT. Cells were then washed 10× in PBS/CaMg and all of the wash buffer was removed. Cells were incubated with 100 μl TMB until the color reaction reached saturation, stopped with 100 μl of 0.18 M H₂SO₄, and read at A450 on a Perkin Elmer ENVISION™ plate reader.

T3 sequence (Q9HBE5 20-538 limits assumed): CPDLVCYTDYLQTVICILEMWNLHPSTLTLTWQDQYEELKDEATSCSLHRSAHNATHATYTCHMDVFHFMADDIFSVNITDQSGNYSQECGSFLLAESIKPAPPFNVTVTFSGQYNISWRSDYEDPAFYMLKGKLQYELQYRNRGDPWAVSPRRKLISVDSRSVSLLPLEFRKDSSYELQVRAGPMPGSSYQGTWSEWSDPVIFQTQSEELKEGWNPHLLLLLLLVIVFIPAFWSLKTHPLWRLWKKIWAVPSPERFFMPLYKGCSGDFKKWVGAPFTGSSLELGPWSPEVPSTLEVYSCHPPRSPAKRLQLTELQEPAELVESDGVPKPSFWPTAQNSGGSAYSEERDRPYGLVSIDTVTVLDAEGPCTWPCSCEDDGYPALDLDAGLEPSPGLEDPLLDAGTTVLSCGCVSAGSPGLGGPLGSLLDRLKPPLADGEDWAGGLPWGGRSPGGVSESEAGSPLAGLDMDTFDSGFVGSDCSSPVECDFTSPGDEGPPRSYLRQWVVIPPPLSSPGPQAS
T1 sequence (Q9HBE5 20-232): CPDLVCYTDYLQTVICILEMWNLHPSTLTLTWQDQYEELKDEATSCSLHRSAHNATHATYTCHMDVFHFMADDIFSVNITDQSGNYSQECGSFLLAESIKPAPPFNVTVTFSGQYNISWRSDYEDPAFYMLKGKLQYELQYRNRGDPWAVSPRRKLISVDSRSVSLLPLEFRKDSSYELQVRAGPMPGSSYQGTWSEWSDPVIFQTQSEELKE
T5 sequence (P02745 23-245, chain 1 of 3): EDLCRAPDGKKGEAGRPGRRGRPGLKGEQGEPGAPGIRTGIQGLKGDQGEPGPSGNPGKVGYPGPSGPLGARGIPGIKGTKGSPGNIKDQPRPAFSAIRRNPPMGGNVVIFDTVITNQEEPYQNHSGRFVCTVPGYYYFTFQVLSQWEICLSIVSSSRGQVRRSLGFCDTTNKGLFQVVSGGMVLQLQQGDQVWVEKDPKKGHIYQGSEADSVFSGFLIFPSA
T5 sequence (P02746 28-253, chain 2 of 3): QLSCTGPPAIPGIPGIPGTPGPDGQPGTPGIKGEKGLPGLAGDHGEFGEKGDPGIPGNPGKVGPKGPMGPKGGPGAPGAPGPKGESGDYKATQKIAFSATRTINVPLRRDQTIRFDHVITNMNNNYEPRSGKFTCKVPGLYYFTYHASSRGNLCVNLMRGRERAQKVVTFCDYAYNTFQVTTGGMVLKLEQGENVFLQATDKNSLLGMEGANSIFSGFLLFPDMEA
T5 sequence (P02747 29-245, chain 3 of 3): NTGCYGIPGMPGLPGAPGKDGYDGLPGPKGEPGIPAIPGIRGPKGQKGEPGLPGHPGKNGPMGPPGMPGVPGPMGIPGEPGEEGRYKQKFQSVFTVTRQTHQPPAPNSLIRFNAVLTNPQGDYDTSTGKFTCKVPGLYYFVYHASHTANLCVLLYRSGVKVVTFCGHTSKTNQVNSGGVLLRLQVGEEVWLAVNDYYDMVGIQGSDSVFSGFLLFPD

Binder	Kd [1]	koff [1]	kon [1]	Kd [2]	koff [2]	kon [2]	Kd [3]	koff [3]	kon [3]	EC50 (read off the curve) [4]	EC50 (read off the curve) [5]	binding result [6]	Human IL-21R-BaF3 Neutralization IC50 [7]	Human IL-21R-TF1 Neutralization IC50 [7]	Murine IL-21R-BaF3 Neutralization IC50 [8]	Neutralization of B cell proliferation IC50 [9]	EC50 (read off the curve) [10]
AbP (antibody, human IgG1, V domains shown, CDR3 graft, residue limits derived as for m29; also called VHP/VL20; VHPTM/VL20) VH: QVQLQESGPGLVKPSETLSLTCAVSGYSISSGYYWGWIRQPPGKGLEWIGSISHTGNTYYNPPLKSRVTISVDTSKNQFSLKLSSVTAADTAVYYCARGGGISRPEYWGQGTLVTVSS VL: SSELTQDPAVSVALGQTVRITCQGDSLRTYYASWYQQKPGQAPVLVIYGKHKRPSGIPDRFSGSSSGNTASLTITGAQAEDEADYYCVSRSAKGNPHVLFGGGTQLTVL	0.615 nM	0.000119 s⁻¹	194000 M⁻¹ s⁻¹	50.8 nM	0.00508 s⁻¹	99900 M⁻¹ s⁻¹	0.436 nM	0.000102 s⁻¹	233000 M⁻¹ s⁻¹	~1 nM	~0.7 nM	no binding					
parental 18A5 antibody (antibody, V domains shown, also called 18A5 IgG) VH: QVQLQESGPGLVKTSETLSLTCAVSGYSISSGYYWGWIRQPPGKGLEWIGSISHTGNTYYNPPLKSRVTISVDTSKNQFSLKLSSVTAADTAVYYCARGGGISRPEYWGKGTLVTVSS VL: SSELTQDPPVSVALGQTVTLTCQGDSLRTYYASWYQQKSGQAPILLLYGKHKRPSGIPDRFSGSTSGDTASLTITGAQAEDEADYYCNSRDSSGNPHVLFGGGTQLTVL	4.43 nM	0.00108 s⁻¹	243000 M⁻¹ s⁻¹	72 nM	0.0153 s⁻¹	212000 M⁻¹ s⁻¹	4.4 nM	0.00134 s⁻¹	304000 M⁻¹ s⁻¹	~0.6 nM	~0.4 nM		1.71 nM	14 nM	177 nM	1.86 nM	
AbO (antibody, human IgG1, V domains shown, CDR3 graft, residue limits derived as for m29; also called VHP/VL16; VHPTM/VL16) VH: QVQLQESGPGLVKPSETLSLTCAVSGYSISSGYYWGWIRQPPGKGLEWIGSISHTGNTYYNPPLKSRVTISVDTSKNQFSLKLSSVTAADTAVYYCARGGGISRPEYWGQGTLVTVSS VL: SSELTQDPAVSVALGQTVRITCQGDSLRTYYASWYQQKPGQAPVLVIYGKHKRPSGIPDRFSGSSSGNTASLTITGAQAEDEADYYCVTRSAKGNPHVLFGGGTQLTVL	0.475 nM	0.000114 s⁻¹	241000 M⁻¹ s⁻¹	49.2 nM	0.00549 s⁻¹	112000 M⁻¹ s⁻¹				~0.4 nM	~0.5 nM	no binding					~0.4 nM

— patent US20120276102A1 (Pfizer, published 2012)
